The target of the experiment is Fgr SH3 domain (human, UniProt P09769 77-138, uniformly 15N-labelled). The experiment is described as follows: NMR titration.

As usually defined, the Kd is a measure of binding affinity in units of concentration.

Turning to PPTPNPPRPP [arrestin-3 aSwI peptide (PPTPNPPRPP)], the Kd was found to be 347 µM.
